From patent US20240309081A1 (QYUNS THERAPEUTICS, published 2024)

T1: human interleukin-33 (hIL-33) (human, UniProt O95760 112-270)
T1 construct: The immunogen was bought from Novoprotein; also called recombinant human interleukin-33
T1 sequence: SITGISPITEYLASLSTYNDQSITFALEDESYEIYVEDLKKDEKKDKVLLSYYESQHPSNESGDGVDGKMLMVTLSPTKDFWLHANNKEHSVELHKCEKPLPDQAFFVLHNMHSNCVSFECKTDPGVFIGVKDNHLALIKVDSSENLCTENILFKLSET

T2: interleukin-33 of rhesus monkeys (rhesus monkey, UniProt F7DLG4 112-269)
T2 construct: also called rhesus monkey IL-33
T2 sequence: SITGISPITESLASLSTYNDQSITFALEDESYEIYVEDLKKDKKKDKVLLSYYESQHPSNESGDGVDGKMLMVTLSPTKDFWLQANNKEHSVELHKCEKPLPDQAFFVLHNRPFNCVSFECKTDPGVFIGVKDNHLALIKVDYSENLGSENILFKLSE

T3: natural human interleukin-33 (human) (UniProt O95760)
T3 sequence (looked up): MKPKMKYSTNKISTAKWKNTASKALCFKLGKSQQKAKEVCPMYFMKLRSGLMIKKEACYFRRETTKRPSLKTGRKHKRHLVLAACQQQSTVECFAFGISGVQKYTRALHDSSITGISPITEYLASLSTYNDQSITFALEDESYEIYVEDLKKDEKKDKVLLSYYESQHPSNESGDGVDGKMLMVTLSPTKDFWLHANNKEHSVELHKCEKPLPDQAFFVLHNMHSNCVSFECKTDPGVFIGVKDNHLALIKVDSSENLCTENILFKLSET

B1: QX007N (HZD78-70) (antibody, human IgG1, kappa, V domains shown)
VH: EVQLVESGGGLVQPGGSLRLSCAASGFSLSSYHMIWVRQAPGKGLEWVGVIYPNSNIYYATWAKGRFTISRDNSKNTLYLQMNSLRAEDTAVYYCARTIYVHVYSALSIWGQGTLVTVSS
VL: AFQMTQSPSSVSASVGDRVTITCQASESVLNEVSWYQQKPGKAPKLLIYFASKLASGVPSRFSGSGSGTDFTLTISSLQPEDFATYYCQQDWSMDNIDNAFGGGTKVEIKR
notes: Humanized rabbit antibody, expressed in ExpiCHO-S cells and purified with Protein A; also called humanized 78#
B2: Etokimab/ANB020 (antibody, INN chains, looked up, V domains shown)
VH: QVQLMQSGAEVKKPGASVKVSCKASGYTFTSYWMHWVRQAPGQGLEWMGTIYPRNSNTDYNQKFKARVTMTRDTSTSTVYMELSSLRSEDTAVYYCARPLYYYLTSPPTLFWGQGTLVTVSS
VL: DIQLTQSPSFLSASVGDRVTITCKASQDVGTAVAWYQQKPGKAPKLLIYWASTRHTGVPSRFSGSGSGTEFTLTISSLQPEDFATYYCQQAKTYPFTFGSGTKLEIK

What was measured:
[1] = biological target: T1, human interleukin-33 (hIL-33); assay: SPR (Biacore T200, 25 C), antibody captured on Protein A chip, antigen as analyte, 1:1 model
Description: Commercialized Protein A chip was used to immobilize an appropriate amount of antibody by capture method, so that the Rmax was about 50 RU, and the capture flow rate was 10 μl/min. The antigen was diluted by gradient, the flow rate of the instrument was switched to 30 μl/min, and the antigen flowed through the reference channel and the channel of the immobilized antibody in order of concentration from low to high, and the buffer was used as a negative control. After each binding and dissociation, the chip was regenerated with glycine at pH 1.5. The 1:1 binding model in Kinetics option was selected for fitting using the analysis software that comes with the instrument, and the binding rate constant kₐ, the dissociation rate constant kd and the equilibrium dissociation constant KD value of the antibody were calculated.
In addition, the affinity of QX007N (HZD78-70) and Etokimab/ANB020, a monoclonal antibody against human interleukin-33 developed by AnaptysBio were compared, and the detection method for known antibodies was the same as that for QX007N. Particularly, Etokimab/ANB020 was self-made by constructing an expression plasmid according to the APE4909 sequence provided by the patent WO2015106080A2, and transiently transfecting ExpiCHO-S cells.

[2] = biological target: T2, interleukin-33 of rhesus monkeys; assay: SPR (Biacore T200), antibody captured on Protein A chip
[3] = biological target: T1, human interleukin-33 (hIL-33); assay: cell-based or functional assay
[4] = biological target: T3, natural human interleukin-33 (human); assay: cell-based or functional assay

Row | Binder | Kd [1] [nM] | koff [1] [s⁻¹] | kon [1] [M⁻¹ s⁻¹] | binding result [2] | inhibition of NF-KB/AP-1 signal transduction in HEK Blue IL-33 cells induced by recombinant human interleukin-33 (SEAP, OD630nm) [3] [ng/mL] | neutralization of IFN-gamma release from human whole blood induced by recombinant human interleukin-33 [3] [ng/mL] | neutralization of IL-5 release from KU812 cells induced by recombinant human interleukin-33 (IL-5 ELISA) [3] [ng/mL] | inhibition of NF-KB/AP-1 signal transduction in HEK Blue IL-33 cells induced by natural human interleukin-33 (SEAP, OD630nm) [4] [ng/mL]
1 | B1 | 1.23 | 0.000481 | 392000 | no binding |  |  |  | 
2 | B2 | 0.869 | 0.000369 | 424000 |  | 6.05 | 31.9 | 44 | 2.5
